Data reported in the supplement of paper PMC10567573.

B1: IQUB (parent)
chain: KIREKEEWIKLDYHRRHNPKTNED

Variants of: B1
Test: protein stability index of a GFP-peptide fusion (GPS, HEK-293T) (PSI 1-6); higher = more stable
Conditions: c terminus: a fixed tail appended
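Further: lentivirally expressed fusions sorted by FACS into six bins by GFP to DsRed ratio, PSI derived from sequencing read proportions per bin multiplied by bin number.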

In order of falling protein stability index:
1. KIREKEEWIKQDYHRRHNPKTNED  5.37
2. KIREKEEWIKLDYDRRHNPKTNED  5.35
3. KIREKEEWIKLDYHDRHNPKTNED  5.33
4. KIREKEEWIKRDYHRRHNPKTNED  5.29
5. KIREKEEWIKSDYHRRHNPKTNED  5.23
6. KIREKEEWIKLDYHSRHNPKTNED  5.22
7. KIREKEEWIKLDYHRRHNPETNED  5.2
8. KIREKEEWIKTDYHRRHNPKTNED  5.2
9. KIREKEEWIKNDYHRRHNPKTNED  5.15
10. KIREKEEWIKLDYHRRHNPPTNED  5.07
11. KIREKEEWIKLDYHARHNPKTNED  5.05
12. KIREKEEWIKLDYQRRHNPKTNED  5.02
13. KIREKEEWIKLDYHVRHNPKTNED  4.97
14. KIREKEEWIKLDYHRRHNKKTNED  4.95
15. KIREKEEWIKDDYHRRHNPKTNED  4.93
16. KIREKEEWIKLDYNRRHNPKTNED  4.89
17. KIREKEEWIKLDYGRRHNPKTNED  4.88
18. KIREKEEWIKLDYHRRHNPGTNED  4.84
19. KIREKEEWIKLDYHGRHNPKTNED  4.83
20. KIREKEEWIKLDYHRRHNPSTNED  4.81
21. KIREKEEWIKYDYHRRHNPKTNED  4.81
22. KIREKEEWIKLDYARRHNPKTNED  4.8
23. KIREKEEWIKPDYHRRHNPKTNED  4.78
24. KIREKEEWIKLDYHTRHNPKTNED  4.76
25. KIREKEEWIKLDYHRRHNPVTNED  4.72
26. KIREKEEWIKKDYHRRHNPKTNED  4.71
27. KIREKEEWIKMDYHRRHNPKTNED  4.71
28. KIREKEEWIKLDYHRRHNQKTNED  4.68
29. KIREKEEWIKLDYHRRHNPRTNED  4.66
30. KIREKEEWIKHDYHRRHNPKTNED  4.66
31. KIREKEEWIKLDYHRRHNPDTNED  4.65
32. KIREKEEWIKLDYHKRHNPKTNED  4.64
33. KIREKEEWIKLDYHRRHNPTTNED  4.64
34. KIREKEEWIKLDYHRRHNPHTNED  4.64
35. KIREKEEWIKGDYHRRHNPKTNED  4.64
36. KIREKEEWIKLDYSRRHNPKTNED  4.61
37. KIREKEEWIKLDYIRRHNPKTNED  4.58
38. KIREKEEWIKLDYRRRHNPKTNED  4.58
39. KIREKEEWIKLQYHRRHNPKTNED  4.55
40. KIREKEEWIKVDYHRRHNPKTNED  4.55
41. KIREKEEWIKLKYHRRHNPKTNED  4.54
42. KIREKEEWIKLDYHRRHNPMTNED  4.53
43. KIREKEEWIKLDYHRRHNPATNED  4.52
44. KIREKEEWIKCDYHRRHNPKTNED  4.52
45. KIREKEEWIKLGYHRRHNPKTNED  4.51
46. KIREKEEWIKLDYPRRHNPKTNED  4.51
47. KIREKEEWIKLDYTRRHNPKTNED  4.5
48. KIREKEEWIKLDYHLRHNPKTNED  4.49
49. KIREKEEWIKLDYHERHNPKTNED  4.46
50. KIREKEEWIKLDYCRRHNPKTNED  4.46
51. KIREKEEWIKLHYHRRHNPKTNED  4.41
52. KIREKEEWIKLPYHRRHNPKTNED  4.41
53. KIREKEEWIKLDYYRRHNPKTNED  4.41
54. KIREKEEWIKLDYHNRHNPKTNED  4.39
55. KIREKEEWIKLDYHRRHNPQTNED  4.39
56. KIREKEEWIKLDYHRRHNPITNED  4.37
57. KIREKEEWIKLDYHHRHNPKTNED  4.36
58. KIREKEEWIKLDYFRRHNPKTNED  4.34
59. KIREKEEWIKFDYHRRHNPKTNED  4.33
60. KIREKEEWIKEDYHRRHNPKTNED  4.32
61. KIREKEEWIKLDYHMRHNPKTNED  4.3
62. KIREKEEWIKLDYHIRHNPKTNED  4.29
63. KIREKEEWIKLDYHRRHNPCTNED  4.27
64. KIREKEEWIKLEYHRRHNPKTNED  4.27
65. KIREKEEWIKLDYVRRHNPKTNED  4.24
66. KIREKEEWIKLDYHFRHNPKTNED  4.23
67. KIREKEEWIKLDYHRRHNPNTNED  4.21
68. KIREKEEWIKLRYHRRHNPKTNED  4.21
69. KIREKEEWIKLDYHPRHNPKTNED  4.17
70. KIREKEEWIKLDYHWRHNPKTNED  4.16
71. KIREKEEWIKWDYHRRHNPKTNED  4.13
72. KIREKEEWIKLDYLRRHNPKTNED  4.1
73. KIREKEEWIKLDYHYRHNPKTNED  4.08
74. KIREKEEWIKLAYHRRHNPKTNED  4.07
75. KIREKEEWIKLDYHRRHNPYTNED  4.03
76. KIREKEEWIKLFYHRRHNPKTNED  4.01
77. KIREKEEWIKLDYHQRHNPKTNED  3.98
78. KIREKEEWIKLCYHRRHNPKTNED  3.93
79. KIREKEEWIKLNYHRRHNPKTNED  3.92
80. KIREKEEWIKLDYHCRHNPKTNED  3.89
81. KIREKEEWIKLDYKRRHNPKTNED  3.87
82. KIREKEEWIKLLYHRRHNPKTNED  3.79
83. KIREKEEWIKLTYHRRHNPKTNED  3.79
84. KIREKEEWIKLWYHRRHNPKTNED  3.79
85. KIREKEEWIKIDYHRRHNPKTNED  3.78
86. KIREKEEWIKLDYWRRHNPKTNED  3.73
87. KIREKEEWIKLDYERRHNPKTNED  3.72
88. KIREKEEWIKLMYHRRHNPKTNED  3.7
89. KIREKEEWIKLVYHRRHNPKTNED  3.65
90. KIREKEEWIKLYYHRRHNPKTNED  3.62
91. KIREKEEWIKLSYHRRHNPKTNED  3.59
92. KIREKEEWIKLIYHRRHNPKTNED  3.28
93. KIREKEEWIKLDYHRRHNPWTNED  3.08
94. KIREKEEWIKLDYHRRHNPFTNED  2.51
